Experimental data: publication PMC10940300

Target: preF^C (soluble RSV F A2 prefusion F in the Cav1 background with V185Y, K226Y, N428Y, L512V, L513V and Y519F, before crosslinking) (respiratory syncytial virus (RSV F A2) | not stated) (UniProt P03420)
Assay: cross-linking; dityrosine crosslinking reaction (Arthromyces ramosus peroxidase and H2O2) of the purified protein; reducing SDS-PAGE (TCEP, 95 °C), Coomassie stain, gel shift from monomer to trimer

## preF^C (soluble RSV F A2 prefusion F in the Cav1 background with V185Y, K226Y, N428Y, L512V, L513V and Y519F, before crosslinking) (from UniProt P03420 26-109) (natural protein)
  stoichiometry N: 3
